20 sequences from a protein production outcome set (Wang et al. 2014) can be followed below.

A short description of this series: label from the status in PepcDB records.
With “MASAMLATLELDYFRAVSLYRRRSYERCAELCNALLQAGHDGHVQLFTTKEEEEEEQHQQQQAEHSRFGSNLQRIGPRPRGAAGGGAGAVDSGPSIMMPTWLMEGVWQLKMRALTQRVYVDDLDEDDGGNEATEEVEFERIATAARPGSSIKTAFQPRPLTSQRAQQARSRGAGVAHSSDGRLNSSRPGSAAVARPGTSLSRPGSSLGSRCGTASRIRATSAAAFNVGDATSKLYQASRLNPTIYAERETLVKALFQFLYYHEADVQKAHSLCQAVLEVERQKPSGSTGCTLSWWWQQQMGRCLLALHYPRRAEPFLQQSLTSFPHPDTYLLLSRVYQRIKQPERALLVIGEVVDSRPFDVTYRLEQARIHQAMEQQEDALQLYRLAAKLHPINVESLASIAVGYFYDNNPEMALMYYRRILSLGAQSPELYCNIALCCLYGGQIDLVLPCFQRALATATQPGQKSDIWYNLSFVAVTSGDFNLAKRCLQLCLTSDAQNGAALNNLAVLAAQSGDILGAKSYLNAAKDVMPDAAEVTTNLQFMDVHYKL”, the protein production result is listed as “failed”. Turning to “MQISDIEVFAAIASSRSLSEAARRLGLSPMAISRRLAALENDLGVRLFHRTTRSVSLTPEGEVFLPHAKTILEASEAARTTLKADAGSASGVLRVTAPSVFGQTVIMPLLPALMLENPALSIDLTLSDSIVDIAGLGIDVAIRIATIRDSALVARSLAPNPRVVCVSPDYLARHGKPTLLEELRHHPCIALHAMPWWPFTRNGEPITIRAQGPFSANSVEAVRTACKQGMGLAMLTYWDVRQEINEGSLQQVDFEDAMPEQLSVTAVLPTRQRVPHRVRLFIDRLEAALKSKAGAAGVTL”, the protein production entry is “failed”. Take “MSGSAADPPSPDRLAGVFSVSSVRRTDGTVQYLGNPLVPPDAVAEQLRPVFRQRGYDVRLEELGPESATGTTVTSNGETTVVDDPGANDSIAPGGAVNTRPGQYALVAEPVGTDTGGVPWLNIGLLLATIASTLYVGASAWYYIPVAKNPLRVFEAWPFMVAMLGVLGIHELGHYAAARYHGVDVTLPYFIPFPSYLGTMGAVINIRGRIPDRTALFDIGVAGPLAGLVATTIVTVIGLSIDPITVPERVANSDTGVIITFNYPLLFQALEALVNALGLGTEVGPGESVHPIVFAGWAGMFFTFLNLLPVGQLDGGHIVRSIVGRRQETIAAAVPGALFALAGYLYFTRDPPPVGFGVWGLWVFWGLFATGLAYAGPARPTVDTALDRRRALLGLFTFLLGIACFTPVPFEISAV”: the protein production result is “failed”.

As for “MFVNSNGYNLGVREDEVVVNDVDLPPWAKKPEDFVRINRMALESEFVSCQLHQWIDLIFGYKQRGPEAVRALNVFHYLTYEGSVNLDSITDPVLREIPEAYFIRDPHTFLLTKDFIKAMEAQIQNFGQTPSQLLIEPHPPRSSAMHLCFLPQSPLMFKDQMQQDVIMVLKFPSNSPVTHVAANTLPHLTIPAVVTVTCSRLFAVNRWHNTVGLRGAPGYSLDQAHHLPIEMDPLIANNSGVNKRQITDLVDQSIQINAHCFVVTADNRYILICGFWDKSFRVYSTETGKLTQIVFGHWDVVTCLARSESYIGGDCYIVSGSRDATLLLWYWSGRHHIIGDNPNSSDYPAPRAVLTGHDHEVVCVSVCAELGLVISGAKEGPCLVHTITGDLLRALEGPENCLFPRLISVSSEGHCIIYYERGRFSNFSINGKLLAQMEINDSTRAILLSSDGQNLVTGGDNGVVEVWQACDFKQLYIYPGCDAGIRAMDLSHDQRTLITGMASGSIVAFNIDFNRWHYEHQNRY”, the protein production result was “failed”. Regarding “MSVLAIIFLLNLKPTIYSIVGIFLIIILDVTVAVALYFLLRPVSKNISMLMSLFRIVYAAIFTTALYKIHDLTAFYSILDLGYIFFGIHLFLLGFLVYKSGYMPKWLGALIFIASTGYIIDPLLRFSGYAVEIGMYTFFGEVLFAFWLVIKGRKLSEVVSTP”, the protein production entry is “failed”.

For “MKRGEELPPLEIEVTRTLIVAGAIASRDYQDVHHDAESARRRGSPDIFMNILTTNGLVGRYITDHFGPGAVLRKVAIRLGAPNYPGDTMVLTGTVVEVEGDTATVKVIGANGIGTHVRGTVTVTVPPGSASLEHHHHHH”, the protein production entry is “failed”. Turning to “MSDSLRIIFAGTPDFAARHLGALLSSQHKIVGVFTQPDRPAGRGNKLTPSPVKILAEHHGIPVFQPKSLRPEENQHLVADLNADIMVVVAYGLILPAAVLAMPRLGCINVHGSLLPRWRGAAPIQRSVWAGDEKTGITIMQMDIGLDTGAMLHKIECAIQPEDTSATLYDKLAQLGPQGLLITLQQLAAGTALAEVQNETQATYAEKLSKEEAKLDWTLSATQLERCIRAFNPWPVSYFIVDEQPIKVWQAQVLPAGEDAEPGTIIHADKHGIQVATADGVLNITQLQPAGKKAMSAADLLNSRREWFIPGSQLV”, the protein production result is given as “not failed”. With “MGKFTQRLSLRVRLTLIFLILASVTWLLSSFVAWKQTTDNVDELFDTQLMLFAKRLSTLDLNEINAADRMAQTPNRLKHGHVDDDALTFAIFTHDGRMVLNDGDNGEDIPYSYQREGFADGQLVGEDDPWRFVWMTSPDGKYRIVVGQEWEYREDMALAIVAGQLIPWLVALPIMLIIMMVLLGRE”, the protein production entry is given as “not failed”.

“MKNYLQILRETLKAMLSKPMWLMVVASVCITSLPYMNHTALDLPVAVVDEDHSDVSRELVRLLDSAPKVAVVGYDSLPQAKRDLAWRKLYAIIVIPLNFEKRLLRGEALVIPYFGDATNRMANGQIQQDISAVYSALTNRYNAALLEREGFTATQAQVVLSPLVGQLTDLFNPGISFAAIVLPGLLSLILQHSLLLGCTRGNIMLRGGTPRYMRQPLSTRFGRYSAQLLIWTVLAMLFYVIWPHLLGYRQSASFFMLLGIVLPFLIAVIALSEFIAELLPTEESVYLTMTFITLPLFYMAGYSWPEQAMPDWVRWLADAIPSTWAIRAIAEMNQMDLPLREVSDHALVLLGMAATYALLGTLLYQYRNWRWDNVKGW”: the protein production result was “failed”. On to “MAFIIDLLLLCCSAFMSSCEVAYFSLKPIDLQNIRERNHSSDIALSNLLDNSNQLLATILIGNNVINVAIVILSNYAIEQTFVFSSPIIGFLIQTILLTTVLLLFGEILPKVYARKNPLQYSRFSAAAMSVIYKILSPFSKLLVKSTGIVTRGISKKKYDMSVDELSKAVALTTTEGEPEEKEMINEIIKFYNKTACEIMVPRIDIVDVDLSWPFRKMLDFVVSSGYSRLPVSEGSEDNIKGVIYIKDLIPHMDKGDEFDWHPLIRKAYFVPENKRIDDLLEEFRANKVHVSIVVDEFGGTCGLITMEDILEEIVGEITDEYDEEELPFKVLGDGSYLFEGKTSLSDVRHYLDLPENAFGELGDEVDTLSGLFLEIKQELPHVGDTAVYEPFRFQVTQMDKRRIIEIKIFPFERTWEVE”, for which the protein production result was “failed”.

Regarding “MSKPPLFFIIIIALIVVAASFRFVQQRREKAANEAAPLQQKQVVVSNKREKPVNDRRSRQQEVIPAGTSMRYEVSFKPLNGGLEKTFRLQAQQYHALTVGDQGTLSYKGTRFVGFVSRTPDNE”, the protein production entry was “failed”. With “MIIIKNGALVTPQGLRRADLAMEGDKIVRIAAAIEPGEDDTVQDATDCWVFPGFIDGHTHMQCWTGMDWTADSFETGTRAAVCGGTTTIVDYATADRGVTMPDALVEWHHRADGTCTANYAFHMALAEWNERNRADLSAMREAGVSSFKTYFAYDHLRLDDAETLEVLEELKRVGGILCVHCENGTLVNALQKRVFEQGIHGPEGHALSRPDVCEGEAVSRLLYLAHLAGDAPVNVVHLSTKLGLEAIRAAKARGQKNIYVETCPQYLMLDDTCYLEQGEDGFAGAKYVMSPPLRHAGDRAALREALVAGEIDTIATDHCSFNLHGQKDRGRDDFRAIPNGGPGVEHRPVAIATSFEGQLGPEDLCRLMSENPARVFGMYPRKGCLAEGADADVCVWDPQARWTIRAATQHQAVDYTPLEGFEAHGRAKAVFVNGVLAARDGEPTGAQPGRYVPR”, the protein production entry is recorded as “failed”.

As to “MDWKVFLLRVAVALVLGALIGAERQLRQRLTGLRTNALVSTGACLFVLMTQGVPGLAGDASRIAAYVVSGIGFLGGGVIMRDGLNVRGLNTAATLWCTAAIGVLCSMGLLLEATLGSLVVLCANILLRDIAQRLNRQDVLPASEAEQRYEVQIVCRAEDEIQVRSLMLHSLGSSDLRLQSLHSEDLDNPAKLEVRAELLGTPEAPAQLERLVSRVSLEKGVSSVRWQVFELAAD”, the protein production result is “failed”. As for “KSPGWMKHLDQEQAVHSESETYGISSWVYSARLPFHPQRFQHFLAHPWTNGTLLRCKGYIWNAKCYQDIGMLVQTGGQFEWEIVGRWWNFINQSDWPQDHYRRDSIFEKWDERTGDCRQEIVFIGQNIDWNTLKHQLDDCLLTLQEIEDGPEAWLNY”, the entry is “failed”; as for “MKQPTAVIFDWYNTLIDTSINIDRTTFYQVLDQMGYKNIDLDSIPNSTIPKYLITLLGKRWKEATILYENSLEKSQKSDNFMLNDGAIELLDTLKENNITMAIVSNKNGERLRSEIHHKNLTHYFDSIIGSGDTGTIKPSPEPVLAALTNINIEPSKEVFFIGDSISDIQSAIEAGCLPIKYGSTNIIKDILSFKNFYDIRNFICQLINI”, “not failed”; as for “MARKIGSRYTAHQILGRGSAGTVWLGEGPDGPVAIKLLREDLASDQELVSRFVQERTALLGLDHPHVVSVRDLVVDGNDLALVMDLVRGTDLRTRLDRERRLAPEAAVAVVADVADGLAAAHAAGVVHRDVKPENVLLDMQGPLGPGGSHPALLTDFGVAKLIDTPRRTRATKIIGTPDYLAPEIVEGLPPRAAVDIYALATVLYELLAGFTPFGGGHPGAVLRRHVTETVVPLPGIPDELWQLLVQCLAKAPASRLRASELSARLRELLPMLAGMAPLDVDEPDAEQPEDAPDASAASPAAPVSTAEPVRRRGAVPLVPGAKPADSNRDTHTSMRVPAPDELAGGARGTARAPRASGAPRPGSARNRAATRRRRIAVGAGAVALVAAIGVGTWLATGGDEDGGGPQDTRNSAPAAP”, “failed”.

On to “MSLNNQDISIGKLSRLKIWITDNHLSDDQWSNTKKFIIIKITTEDGIEGWGEAFSINFREKGIAIIIKELFREISNIPNLSIKSFYNKISLLSDGHRGLDFSSATSAIEIALWDISGKLKNLPLNSLLTKSPKPNVPIYATCWSDLKKDTNDYLRQIEKFYGKKYGGIKIYPMLDSLSISIQFVEKVREIVGDELPLMLDLAVPEDLDQTKSFLKEVSSFNPYWIEEPVDGENISLLTEIKNTFNMKVVTGEKQSGLVHFRELISRNAADIFNPDISGMGGLIDIIEISNEASNNGIFISPHCWNSMSVSASAMLHVCSSIPNSEKAEIFPDYINFSKKFCELPFDIIDNKAHINKSAGLGIVIHEDILSELSIYSLDEKSNDEGHHHHHH”, for which the protein production entry is listed as “not failed”.

Take “MSKIEIFEAAGCCATSSVVVSDEAVKWNASAEWAKKHGVNIQRYSLAKNPQQFLNTPVIRAFLNTSGMESLPATLLDGQLVMAGKLPSREDIARWAGISLTQDWNEDSTQPRCCSIPRMP”: the protein production entry is “failed”. As for “MSHVSYAEPPAQGWDIHCHTVFSDGTETPRTLVEQARKLGLHGVAIADHDTTAGWDEATEASEEIGLPLLLGTEITAVDEDVSVHMLAFQYDPSNEHISSMFANTRAARLRRTKRMVERLSQDFPITWDDVLAQVKEGERTTIGRPHIADALVAAGVYETRSDAFADAVSAKSKYYIPTPSPSTHEVIAAVKGAGGVVVAAHAGDPQRNRRLLSDEQLDAMIADGLDGLEVWHRGNPPEQRERLLTIAARHDLLVTGGSDWHGKGKPNGLGENLTDDDTVREILCRGVDLIGRVGSSHAA”, the entry is “not failed”; as for “MSGILALGAYVPERVMTNADFEAYLDTSDEWIVTRTGIKERRVAAEDEYTSDLAFKAVEDLLRRHPGALEGVDAVIVATNTPDALFPDTAALVQARFGLKAFAYDLLAGCPGWIYALAQAHALVEAGLAQKVLAVGAEALSKIIDWNDRATAVLFGDGGGAAVVGKVREGYGFRSFVLGADGTGAKELYHACVAPRLPDGTSMKNRLYMNGREVFKFAVRVMNTATLEAIEKAGLTPEDIRLFVPHQANLRIIDAARERLGLPWERVAVNVDRYGNTSTASIPLALKEALDAGRIREGDHVLLVSFGAGLTWAAAVLTWGGA”, “not failed”.
